Source: article PMC11678472, “Comparative Analysis of Symmetry Parameters in the E2 Inner Core of the Pyruvate Dehydrogenase Complex” (International Journal of Molecular Sciences, 2024)

Target: the molecule itself
Experiment: cryo-EM structure; single-particle analysis of purified truncated E2 (4 uL of 100 nM) on a holey carbon grid, vitrified at 4 °C and 100% humidity; 69,946 particles; reconstructed with C1, C5, D2, T and I symmetry (4.93 to 4.20 Å)

B1: truncated dihydrolipoyl acetyltransferase (E2) of the pyruvate dehydrogenase complex of B. stearothermophilus, amino acids 185 to 425 (catalytic core domain … (domain or fragment, Bacillus stearothermophilus, UniProt P11961 185-425, looked up)
chain: AAAKPATTEGEFPETREKMSGIRRAIAKAMVHSKHTAPHVTLMDEADVTKLVAHRKKFKAIAAEKGIKLTFLPYVVKALVSALREYPVLNTSIDDETEEIIQKHYYNIGIAADTDRGLLVPVIKHADRKPIFALAQEINELAEKARDGKLTPGEMKGASCTITNIGSAGGQWFTPVINHPEVAILGIGRIAEKPIVRDGEIVAAPMLALSLSFDHRMIDGATAQKALNHIKRLLSDPELLL
notes: dihydrolipoyl acetyltransferase (E2) of the pyruvate dehydrogenase complex, Bacillus stearothermophilus, UniProt P11961; Forms an icosahedral inner core built of trimeric units; It says only that I symmetry has 60 elements; The monomer runs at about 32 kDa on SDS-PAGE, more than residues 185-425 alone, so tags are probably present; also called truncated E2; E2 inner core complex; source: E. coli …
Question: For B1, which “stoichiometry N” value is on record?
Answer: Its value is 3.
